Reference: FireProtDB (doi:10.1021/bi00231a002)
Several values for one entry are separate records, joined by “and”; a condition that tells them apart may be missing. Equal entries are not always repeated.

B1: Cytochrome c2, P00094 (parent)
chain: MKISLTAATVAALVLAAPAFAGDAAKGEKEFNKCKTCHSIIAPDGTEIVKGAKTGPNLYGVVGRTAGTYPEFKYKDSIVALGASGFAWTEEDIATYVKDPGAFLKEKLDDKKAKTGMAFKLAKGGEDVAAYLASVVK

Variants of: B1
Conditions: Rhodobacter capsulatus (strain ATCC BAA-309 / NBRC 16581 / SB1003); pH 7.5; 20 °C; GdnHCl; CD; Tris-HCl 20 mM; NaCl 40 mM; structure 1C2R; whole UniProt chain shown

Variant | denaturant m value | denaturant midpoint (higher = more stable) | unfolding free energy
Y96F | 2.59 kcal/mol/M and 1.43 kcal/mol/M | 1.71 M and 3.32 M | 4.42 kcal/mol and 4.75 kcal/mol
Y96C | 2.57 kcal/mol/M and 1.96 kcal/mol/M | 1.44 M and 2.24 M | 3.71 kcal/mol and 4.4 kcal/mol
